Source: the supplement of paper PMC10567573

B1: MLL5 (parent)
chain: DCMGIDRQHIPDTYLCERCQPRNL
B2: ZBTB22 (parent)
chain: AVLAASSPYFHDQVLLKGMTSISL

Variants of: B1
Assay: protein stability index of a GFP-peptide fusion (GPS, HEK-293T) (PSI 1-6); higher = more stable
Conditions: c terminus: a fixed tail appended
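Also: lentivirally expressed fusions sorted by FACS into six bins by GFP to DsRed ratio, PSI derived from sequencing read proportions per bin multiplied by bin number.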

Protein stability index of substitutions, site by site:
Q8: E 2.63, F 1.98, G 2.59, H 2.89, I 2.56, K 2.44, L 1.99, M 2.58, N 3.07, P 3.41, R 2.5, S 3.25, T 2.33, V 2.1, W 1.76, Y 2.65
H9: A 2.63, C 3.29, D 2.56, E 2.86, F 2.04, G 2.77, I 2.24, K 3.58, L 2.93, M 2.16, N 2.65, P 2.12, Q 3.04, R 2.64, S 2.98, T 3.11, V 2.63, W 2.23, Y 2.01
I10: A 2.92, C 3.62, D 3.56, E 3.72, F 2.54, G 3.13, H 3.49, K 3.04, L 3.02, M 3.9, N 3.3, P 2.97, Q 3.42, R 3, S 3.14, T 2.48, V 2.45, W 2.37, Y 3.49
P11: A 2.6, C 4.15, D 2.61, E 3.43, F 2.59, G 2.96, H 3.71, I 2.36, K 2.62, L 2.23, M 2.82, N 4.19, Q 2.69, R 3.15, S 2.23, T 3.08, V 2.73, W 1.7, Y 2.44
D12: A 2.01, C 2.67, E 2.81, F 2.64, G 2.63, H 2.48, I 2.51, K 1.96, L 1.93, M 3.1, N 2.38, P 3.19, Q 2.67, R 2.86, S 2.38, T 2.81, V 1.69, Y 2.1
T13: A 3.59, C 2.17, D 3.54, E 3.71, F 2.55, G 3.31, H 3.36, I 2.26, K 3.24, L 2.04, M 2.89, N 2.91, P 3.33, Q 3.07, R 3.63, S 3.66, V 3.34, W 2.7, Y 2.15
Y14: A 3.85, C 4.74, D 3.83, E 4.21, F 2.89, G 3.35, H 4.12, I 3.21, K 3.11, L 2.56, M 3.5, N 3.15, P 3.71, Q 3.7, R 3.88, S 3.32, T 3.73, V 3.43, W 3.26
L15: A 3.61, C 3.71, D 3.69, E 4.66, F 2, G 3.43, H 3.32, I 3.61, K 4, M 2.95, N 3.8, P 3.15, Q 2.99, R 3.61, S 3.76, T 3.73, V 3.28, W 2.81, Y 2.28
C16: A 3.56, D 3.91, E 3.65, F 3.13, G 4.23, H 3.58, I 3.44, K 3.41, L 3.36, M 3.7, N 3.7, P 3.73, Q 3.79, R 3.67, S 3.52, T 3.41, V 3.21, W 2.9, Y 2.88
E17: A 2.89, C 2.32, D 3.21, F 2.25, G 2.39, H 2.68, I 1.94, K 2.6, L 2.96, M 2.28, N 3.35, P 2.96, Q 3.04, R 2.47, S 2.64, T 3.07, V 1.71, W 2.02, Y 2.5
R18: A 2.57, C 2.89, D 3.81, E 3.15, F 2.87, G 3.6, H 3.18, I 2.9, K 2.63, L 2.84, M 2.74, N 3.58, P 3.15, Q 3.01, S 3.12, T 3.15, V 2.19, W 2.25, Y 2.23
C19: A 4.26, D 4.73, E 4.12, F 3.14, G 3.63, H 3.7, I 3.02, K 3.67, L 3.43, M 1.98, N 4.06, P 4.55, Q 3.88, R 4.24, S 3.85, T 4.09, V 2.65, W 2.63, Y 2.8
Q20: A 2.81, C 2.69, D 4.22, E 3.21, F 2.37, G 2.79, H 2.8, I 2.55, K 2.68, L 1.99, M 3.26, N 3.33, P 3.24, S 3.03, T 3.53, V 2.79, W 2.27, Y 2.94
P21: A 3.58, C 3.21, D 4.21, E 4, F 2.49, G 3.45, H 2.76, I 2.5, K 3.53, L 3.61, M 3.62, N 3.21, Q 3.93, R 3.4, S 2.93, T 2.95, V 2.48, W 1.7, Y 2.88
R22: A 3.57, C 3.66, D 3.42, E 3.98, F 2.35, G 3.28, H 2.72, I 2.9, K 3.19, L 3.31, M 1.86, N 2.94, P 3.34, Q 3.19, S 3.31, T 3.34, V 2.67, W 1.99, Y 2.49
N23: A 2.09, C 1.85, D 3.08, E 2.86, F 2.58, G 3, H 2.36, I 2.29, K 2.73, L 2.5, M 2.83, P 3.1, Q 2.62, R 1.53, S 3.07, T 2.61, V 2, W 2.49, Y 1.94
L24: A 3.55, C 3.24, D 3.88, E 3.44, F 2.71, G 3.73, H 2.91, I 2.36, K 4.2, M 2.69, N 3.26, P 2.64, Q 3.51, R 2.62, S 3.84, T 3.14, V 2.84, W 2.77, Y 2.86

Variants of: B2
Assay: as above
Conditions: c terminus: a fixed tail appended

Protein stability index of substitutions, site by site:
A1: C 3.85, E 4.15, H 4.3, I 2.99, K 3.83, M 2.57, N 2.3, Q 2.39, T 4.21, Y 2.9
V2: C 1.04, D 2.17, E 1.41, H 2.52, I 2.75, K 1.97
